Experimental data published in publication PMC9377746 (Molecular Cancer Therapeutics, 2022).
Values belong to the molecule of their own block, whether it stands above or below them.

Columns and labels:
[1] = biological target: human FcγRIIb (human) (UniProt P31994); experiment: SPR
[2] = biological target: human Clever-1 on cells and in tissue (Homo sapiens, UniProt Q9NY15); experiment: flow cytometry on cells
[3] = biological target: purified human Clever-1 (Homo sapiens, UniProt Q9NY15); experiment: SPR
[4] = biological target: purified cynomolgus Clever-1 (Macaca fascicularis, UniProt A0A2K5VS84); experiment: SPR

Sequence of human FcγRIIb (human) (P31994 43-310): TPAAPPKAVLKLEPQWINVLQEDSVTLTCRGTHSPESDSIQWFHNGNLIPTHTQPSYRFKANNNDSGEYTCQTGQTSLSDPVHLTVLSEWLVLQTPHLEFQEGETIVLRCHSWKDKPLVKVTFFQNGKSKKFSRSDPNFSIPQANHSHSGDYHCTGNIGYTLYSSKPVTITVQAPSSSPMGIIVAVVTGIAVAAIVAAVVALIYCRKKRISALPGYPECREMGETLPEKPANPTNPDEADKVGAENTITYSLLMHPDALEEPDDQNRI
Sequence of human Clever-1 on cells and in tissue (Q9NY15 26-2570): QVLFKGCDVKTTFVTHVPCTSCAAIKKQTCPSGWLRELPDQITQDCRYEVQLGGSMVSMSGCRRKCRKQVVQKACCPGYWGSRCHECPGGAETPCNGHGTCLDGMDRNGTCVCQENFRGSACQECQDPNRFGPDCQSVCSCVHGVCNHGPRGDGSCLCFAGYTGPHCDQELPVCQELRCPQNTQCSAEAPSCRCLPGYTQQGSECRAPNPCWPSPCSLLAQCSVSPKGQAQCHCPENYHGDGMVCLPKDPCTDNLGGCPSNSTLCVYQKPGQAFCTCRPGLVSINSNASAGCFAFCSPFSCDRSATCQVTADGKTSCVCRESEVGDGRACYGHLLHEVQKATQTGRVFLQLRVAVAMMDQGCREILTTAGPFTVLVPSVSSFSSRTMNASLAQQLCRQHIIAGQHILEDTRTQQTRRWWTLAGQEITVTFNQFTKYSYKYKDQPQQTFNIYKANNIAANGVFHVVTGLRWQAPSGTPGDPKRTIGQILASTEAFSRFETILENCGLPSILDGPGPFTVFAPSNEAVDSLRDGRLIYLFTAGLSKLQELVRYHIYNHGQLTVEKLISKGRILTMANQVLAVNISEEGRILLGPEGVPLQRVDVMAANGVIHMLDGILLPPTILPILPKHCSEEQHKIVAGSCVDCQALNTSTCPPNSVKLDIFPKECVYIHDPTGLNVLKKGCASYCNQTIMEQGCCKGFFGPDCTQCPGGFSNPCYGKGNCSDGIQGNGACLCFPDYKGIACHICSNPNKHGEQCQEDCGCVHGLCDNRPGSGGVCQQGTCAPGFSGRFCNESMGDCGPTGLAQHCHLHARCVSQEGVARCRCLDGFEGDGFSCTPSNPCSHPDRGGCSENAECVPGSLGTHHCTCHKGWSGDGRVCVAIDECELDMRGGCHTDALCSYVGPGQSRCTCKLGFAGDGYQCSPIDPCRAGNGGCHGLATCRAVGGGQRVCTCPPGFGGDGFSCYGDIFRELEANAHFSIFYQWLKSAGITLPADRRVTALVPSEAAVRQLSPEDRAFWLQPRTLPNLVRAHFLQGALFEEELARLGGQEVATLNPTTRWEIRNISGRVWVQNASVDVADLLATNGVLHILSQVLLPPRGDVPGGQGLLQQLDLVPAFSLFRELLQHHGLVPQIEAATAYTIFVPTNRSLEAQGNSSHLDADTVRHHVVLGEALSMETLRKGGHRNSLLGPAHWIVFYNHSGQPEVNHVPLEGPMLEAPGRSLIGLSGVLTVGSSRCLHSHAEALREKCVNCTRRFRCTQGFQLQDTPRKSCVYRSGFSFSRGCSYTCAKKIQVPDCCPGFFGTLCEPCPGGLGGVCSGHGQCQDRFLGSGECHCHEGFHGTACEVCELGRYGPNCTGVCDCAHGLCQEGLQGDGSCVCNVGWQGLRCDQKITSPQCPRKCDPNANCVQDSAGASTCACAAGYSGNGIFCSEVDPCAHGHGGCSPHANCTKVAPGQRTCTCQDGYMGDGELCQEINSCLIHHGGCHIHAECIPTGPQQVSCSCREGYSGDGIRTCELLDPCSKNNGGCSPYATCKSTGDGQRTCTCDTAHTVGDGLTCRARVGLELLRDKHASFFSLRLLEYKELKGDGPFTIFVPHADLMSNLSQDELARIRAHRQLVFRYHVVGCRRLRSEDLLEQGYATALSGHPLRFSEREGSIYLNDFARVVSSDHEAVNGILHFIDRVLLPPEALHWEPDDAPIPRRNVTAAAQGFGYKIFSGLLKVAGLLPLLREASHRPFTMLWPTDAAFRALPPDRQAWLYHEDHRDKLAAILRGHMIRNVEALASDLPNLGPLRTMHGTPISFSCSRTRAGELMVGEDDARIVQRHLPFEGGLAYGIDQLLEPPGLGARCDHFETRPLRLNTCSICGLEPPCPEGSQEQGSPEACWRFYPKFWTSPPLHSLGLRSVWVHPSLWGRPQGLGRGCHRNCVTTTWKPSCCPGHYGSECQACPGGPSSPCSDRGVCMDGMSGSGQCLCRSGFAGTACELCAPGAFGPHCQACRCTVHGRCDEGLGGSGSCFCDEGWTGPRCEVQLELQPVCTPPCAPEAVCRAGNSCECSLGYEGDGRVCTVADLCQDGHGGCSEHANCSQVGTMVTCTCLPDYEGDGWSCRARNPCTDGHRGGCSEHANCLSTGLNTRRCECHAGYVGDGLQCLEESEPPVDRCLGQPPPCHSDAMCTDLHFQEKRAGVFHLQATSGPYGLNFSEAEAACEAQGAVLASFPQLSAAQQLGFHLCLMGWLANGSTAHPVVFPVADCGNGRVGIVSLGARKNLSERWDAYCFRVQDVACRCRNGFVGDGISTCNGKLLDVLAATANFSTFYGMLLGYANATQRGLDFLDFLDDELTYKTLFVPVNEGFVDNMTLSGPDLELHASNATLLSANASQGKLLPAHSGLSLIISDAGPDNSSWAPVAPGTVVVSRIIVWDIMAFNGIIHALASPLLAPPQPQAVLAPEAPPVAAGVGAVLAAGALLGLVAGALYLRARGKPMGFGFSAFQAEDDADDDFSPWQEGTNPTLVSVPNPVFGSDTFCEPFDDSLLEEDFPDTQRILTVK
Sequence of purified human Clever-1 (Q9NY15 26-2570): as above

- Kd [1]: 5130 nM
Molecule: rituximab (antibody)

- Kd [1]: 11400 nM
Molecule: bexmarilimab (antibody)

- EC50 [2]: 2.2 nM
- Kd [3]: 0.75 nM
- Kd [4]: 0.92 nM
B1: bexmarilimab (antibody, V domains shown)
VH: QVTLKESGPTLVKPTQTLTLTCSFSGFSLSTSGMGIGWIRQPPGKALEWLAHIWWDDDKRYNPALKSRLTISKDTSKNQVVLTMTNMDPVDTATYYCARHYGYDPYYAMDYWGQGTLVTVSS
VL: EIVLTQSPGTLSLSPGERATLSCTASSSVSSSYLHWYQQKPGKAPKLLIYRTSNLASGVPSRFSGSGSGTDYTLTISSLQPEDFATYYCHQYHRSPPTFGQGTKLEIK
